According to patent US20070077578A1, “Diagnosis of (a risk of ) disease and monitoring of therapy” (PrimaGen Holding B.V., priority 2004, published 2007):

System: AC133
Test: AC133 expression per 10,000 cells (quantified by U1A) in patients treated with GCSF
Format: in vivo, human
Conditions: two patients treated with GCSF, compared to volunteers and all the other patients
Method: Isolation of nucleic acids from PBMC and NASBA amplification were performed as described in Example 2 with one modification: U1A was used instead of Beta Actin.
Two samples of patients who have been subjected to treatment with GCSF were tested. GCSF mobilizes stem cells from the bone marrow, so it is expected to find more AC133-expressing cells in the blood after a treatment with GCSF. It is clear from FIG. 16 that the AC133 expression in these two patients is much higher compared to volunteers and all the other patients.

B1: GCSF: mobilizes stem cells from the bone marrow (protein, UniProt P09919 31-207, looked up)
Granulocyte …: TPLGPASSLPQSFLLKCLEQVRKIQGDGAALQEKLVSECATYKLCHPEELVLLGHSLGIPWAPLSSCPSQALQLAGCLSQLHSGLFLYQGLLQALEGISPELGPTLDTLQLDVADFATTIWQQMEELGMAPALQPTQGAMPAFASAFQRRAGGVLVASHLQSFLEVSYRVLRHLAQP
  AC133 expression per 10,000 cells: much higher
